The text below walks through data of PMC5103067, “Structural basis of GM-CSF and IL-2 sequestration by the viral decoy receptor GIF” (Nature Communications, 2016).

Experiment [1] deals with GIF R45A/R106A, residues 1-265, C-terminal AviTag, biotinylated (Orf virus) (UniProt Q9J5U5). The experiment is described as follows: BLI; biotinylated GIF (wild type or mutant) on streptavidin-coated biosensors, quenched with biocytin; ligand GM-CSF 1-8 uM or IL-2 3.75-30 nM; PBS pH 7.4, 0.01% BSA, 0.002% Tween-20; 298 K; Octet RED96; 1:1 interaction model; averages of triplicates. On the technique in general: In BLI a coated tip is dipped into the sample, and binding shifts an interference pattern.

The target in experiment [2] is GIF R188A, residues 1-265, C-terminal AviTag, biotinylated (Orf virus) (UniProt Q9J5U5). Described as above.
Experiment [3] concerns the target GIF R106A/R188A, residues 1-265, C-terminal AviTag, biotinylated (Orf virus) (UniProt Q9J5U5). Described as above.
Experiment [4] has as its target GIF R45A, residues 1-265, C-terminal AviTag, biotinylated (Orf virus) (UniProt Q9J5U5). Described as above.
In experiment [5] the target is GIF K211A, residues 1-265, C-terminal AviTag, biotinylated (Orf virus) (UniProt Q9J5U5). Described as above.
For experiment [6], the target named is GIF H232A, residues 1-265, C-terminal AviTag, biotinylated (Orf virus) (UniProt Q9J5U5). The description is as above.
Experiment [7] concerns the target T1, Orf virus GM-CSF/IL-2 inhibition factor (GIF), residues 1-265, C-terminal His6-tag (Orf virus, UniProt Q9J5U5, N-linked glycans).
T1 construct: also called His-tagged GIF; Orf GIF; source: HEK293T, transient expression (pHLsec), secreted; alone purified by IMAC and SEC with 0.15% CHAPS
T1 sequence: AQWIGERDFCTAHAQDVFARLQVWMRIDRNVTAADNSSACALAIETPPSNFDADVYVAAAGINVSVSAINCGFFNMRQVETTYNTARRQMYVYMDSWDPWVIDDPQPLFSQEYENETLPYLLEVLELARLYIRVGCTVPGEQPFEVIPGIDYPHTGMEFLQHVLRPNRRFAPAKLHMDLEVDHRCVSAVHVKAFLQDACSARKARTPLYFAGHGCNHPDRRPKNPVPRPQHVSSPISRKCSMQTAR
In words: SEC-MALS; complexes purified after co-expression of GIF and cytokine in HEK293T; 1-2 mg/ml; Superdex Increase 10/300 GL in HBS pH 7.5, 298 K. The conditions noted are these: both partners purified. A general note: Size exclusion chromatography separates by hydrodynamic size, large species first.

Experiment [8] concerns the target T2, Biotinylated Orf GIF, residues 1-265, C-terminal AviTag (Orf virus, UniProt Q9J5U5, biotin (AviTag, by co-expressed E. coli BirA)).
T2 chain: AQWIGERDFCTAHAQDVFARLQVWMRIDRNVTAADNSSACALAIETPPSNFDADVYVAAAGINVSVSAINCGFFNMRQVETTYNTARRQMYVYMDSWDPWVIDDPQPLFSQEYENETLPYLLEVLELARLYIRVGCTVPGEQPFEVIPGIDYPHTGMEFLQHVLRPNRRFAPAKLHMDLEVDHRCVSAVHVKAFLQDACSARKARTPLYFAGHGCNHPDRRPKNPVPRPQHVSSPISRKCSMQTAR
In words: BLI.

The target in experiment [9] is T3, Biotinylated Orf GIF, residues 1-265, C-terminal AviTag (Orf virus, UniProt Q9J5U5, biotin (AviTag, by co-expressed E. coli BirA)).
T3 construct: also called biotinylated GIF; wild-type GIF; source: HEK293T, co-transfected with BirA (pDisplayBirA-ER), expression medium desalted into HBS; not shown: AviTag, C-terminal, kept
T3 sequence: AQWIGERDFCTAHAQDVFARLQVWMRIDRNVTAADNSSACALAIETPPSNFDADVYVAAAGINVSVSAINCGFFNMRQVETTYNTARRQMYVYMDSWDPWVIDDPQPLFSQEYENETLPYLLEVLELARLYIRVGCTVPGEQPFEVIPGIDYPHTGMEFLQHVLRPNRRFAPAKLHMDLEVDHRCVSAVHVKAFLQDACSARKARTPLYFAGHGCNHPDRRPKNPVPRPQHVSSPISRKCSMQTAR
In words: BLI; biotinylated GIF on streptavidin sensors, quenched with biocytin; cytokine in solution (GM-CSF 1-8 μM, IL-2 3.75-30 nM); PBS pH 7.4, 0.01% BSA, 0.002% Tween-20, 298 K; 1:1 model, triplicates. The conditions noted are these: one partner purified.

B1: ovine GM-CSF (granulocyte macrophage colony-stimulating factor), residues 18-144, as used as the ligand in BLI (ligand)
chain: APTRQPSPVTRPWQHVDAIKEALSLLNDSTDTAAVMDETVEVVSEMFDSQEPTCLQTRLELYKQGLRGSLTSLTGSLTMMASHYKKHCPPTQETSCETQIITFKSFKENLKDFLFIIPFDCWEPVQK
One may read the Kd as a measure of binding affinity in units of concentration. Higher therefore signals weaker binding. B1: the Kd in experiment [1] was found to be 380 nM; in experiment [2], 570 nM; in experiment [3] it was 270 nM; in [4], 280 nM; in experiment [5], 3700 nM; in experiment [6], 670 nM.

B2: ovine GM-CSF, residues 18-144, C-terminal His6-tag, from HEK293T (ligand, UniProt P28773 18-144, looked up)
chain: APTRQPSPVTRPWQHVDAIKEALSLLNDSTDTAAVMDETVEVVSEMFDSQEPTCLQTRLELYKQGLRGSLTSLTGSLTMMASHYKKHCPPTQETSCETQIITFKSFKENLKDFLFIIPFDCWEPVQK
notes: also called oGM-CSF; source: HEK293T, transient expression (pHLsec); purified (TALON IMAC, SEC) or co-expressed with GIF and purified as a complex
What is called stoichiometry N is a count of units in the complex or per binding partner. On to B2, for which, in experiment [7], the “stoichiometry N” value is 2 cytokines per GIF dimer (2:2).

B3: ovine GM-CSF as used as ligand in bio-layer interferometry (ligand, UniProt P28773 18-144, looked up)
chain: APTRQPSPVTRPWQHVDAIKEALSLLNDSTDTAAVMDETVEVVSEMFDSQEPTCLQTRLELYKQGLRGSLTSLTGSLTMMASHYKKHCPPTQETSCETQIITFKSFKENLKDFLFIIPFDCWEPVQK
notes: also called oGMCSF; oGM-CSF
One may read the koff as the first-order rate constant of dissociation. B3 gave a koff in experiment [8] of 6.2e-05 s⁻¹. In addition, the Kd in [9] stood at 27 nM.

B4: ovine IL-2 (interleukin-2), residues 21-155, as used as the ligand in BLI (ligand)
chain: APTSSSTGNTMKEVKSLLLDLQLLLEKVKNPENLKLSRMHTFNFYMPKVNATELKHLKCLLEELKLLEEVLDLAPSKNLNTREIKDSMDNIKRIVLELQGSETRFTCEYDDATVKAVEFLNKWITFCQSIYSTMT
As to B4, the Kd was determined as 0.45 nM in experiment [1]; 4.8 nM in [2]; 5.3 nM in experiment [3]; 0.69 nM in experiment [4]; 0.46 nM in experiment [5]; 0.63 nM in experiment [6].

B5: ovine IL-2 as used as ligand in bio-layer interferometry (ligand, UniProt P19114 21-155, looked up)
chain: APTSSSTGNTMKEVKSLLLDLQLLLEKVKNPENLKLSRMHTFNFYMPKVNATELKHLKCLLEELKLLEEVLDLAPSKNLNTREIKDSMDNIKRIVLELQGSETRFTCEYDDATVKAVEFLNKWITFCQSIYSTMT
notes: also called oIL-2
In experiment [8], B5 registered a koff of 0.00015 s⁻¹. In [9], this molecule returned a Kd of 0.47 nM.

B6: ovine IL-2, residues 21-155, C-terminal His6-tag, from HEK293T (ligand, UniProt P19114 21-155, looked up)
chain: APTSSSTGNTMKEVKSLLLDLQLLLEKVKNPENLKLSRMHTFNFYMPKVNATELKHLKCLLEELKLLEEVLDLAPSKNLNTREIKDSMDNIKRIVLELQGSETRFTCEYDDATVKAVEFLNKWITFCQSIYSTMT
notes: also called oIL-2; source: HEK293T, transient expression (pHLsec); purified (TALON IMAC, SEC) or co-expressed with GIF and purified as a complex
B6: the “stoichiometry N” value in experiment [7] is 2 cytokines per GIF dimer (2:2).
